Results reported in patent publication US20260069728A1, “MULTI-TARGETING COMPOUND AND USE THEREOF” (Chengdu Shetai Medical Technology Co., Ltd., priority 2023, published 2026).
Like-named read-outs stand apart in the source and are kept apart here.

What was measured:
[1] = Stability of radioligands in PBS buffer (radio-HPLC); format: physicochemical
Method: The purpose of this experiment was to test the stability of the radioligands under buffer conditions simulating the physiological environment. This stability is a prerequisite for further animal experiments.
1. ^68Ga-SDYD01: ^68Ga-SDYD01 was added to PBS buffer (pH=7.4) and incubated at 37° C. The mixture samples were taken for radio-HPLC analysis after 0.5 hours, 1 hour, and 2 hours of incubation. The stability of ^68Ga-SDYD01 in PBS buffer: the radiochemical purities of ^68Ga-SDYD01 after incubation in PBS for 0.5 hours, 1 hour, and 2 hours were 98%, 97%, and 97%, respectively (FIG. 4).
2. ^177Lu-SDYD01: ^177Lu-SDYD01 was added to PBS buffer (pH=7.4) and incubated at 37° C. The mixture samples were taken for radio-HPLC analysis after 24 hours, 48 hours, and 120 hours of incubation. The stability of ^177Lu-SDYD01 in PBS buffer: the radiochemical purities of ^177Lu-SDYD01 after incubation in PBS for 24 hours, 48 hours, and 120 hours were 97%, 96%, and 94%, respectively (FIG. 5).
1. ^68Ga-SDYD02: ^68Ga-SDYD02 was added to PBS buffer (pH=7.4) and incubated at 37° C. The mixture samples were taken for radio-HPLC analysis after 0.5 hours, 1 hour, and 2 hours of incubation. The stability of ^68Ga-SDYD02 in PBS buffer: the radiochemical purities of ^68Ga-SDYD02 after incubation in PBS for 0.5 hours, 1 hour, and 2 hours were 96%, 95% and 93%, respectively (FIG. 10).
2. ^177Lu-SDYD02: ^177Lu-SDYD02 was added to PBS buffer (pH=7.4) and incubated at 37° C. The mixture samples were taken for radio-HPLC analysis after 24 hours, 48 hours, and 120 hours of incubation. The stability of ^177Lu-SDYD02 in PBS buffer: the radiochemical purities of ^177Lu-SDYD02 after incubation in PBS for 24 hours, 48 hours, and 120 hours were 95%, 91% and 87%, respectively (FIG. 11).
1. ^68Ga-SDYD05: ^68Ga-SDYD05 was added to PBS buffer (pH=7.4) and incubated at 37° C. The mixture samples were taken for radio-HPLC analysis after 0.5 hours, 1 hour, and 2 hours of incubation. The stability of ^68Ga-SDYD05 in PBS buffer: the radiochemical purities of ^68Ga-SDYD05 after incubation in PBS for 0.5 hours, 1 hour, and 2 hours were 98%, 96% and 95%, respectively (FIG. 16).
2. ^177Lu-SDYD05: ^177Lu-SDYD05 was added to PBS buffer (pH=7.4) and incubated at 37° C. The mixture samples were taken for radio-HPLC analysis after 24 hours, 48 hours, and 120 hours of incubation. The stability of ^177Lu-SDYD05 in PBS buffer: the radiochemical purities of ^177Lu-SDYD05 after incubation in PBS for 24 hours, 48 hours, and 120 hours were 97%, 96% and 96%, respectively (FIG. 17).
1. ^68Ga-SDYD06: ^68Ga-SDYD06 was added to PBS buffer (pH=7.4) and incubated at 37° C. The mixture samples were taken for radio-HPLC analysis after 0.5, 1, and 2 hours of incubation. The stability of ^68Ga-SDYD06 in PBS buffer: the radiochemical purities of ^68Ga-SDYD06 after incubation in PBS for 0.5 hours, 1 hour, and 2 hours were 96%, 94% and 93%, respectively (FIG. 22).
2. ^177Lu-SDYD06: ^177Lu-SDYD06 was added to PBS buffer (pH=7.4) and incubated at 37° C. The mixture samples were taken for radio-HPLC analysis after 24 hours, 48 hours, and 120 hours of incubation.
1. ^68Ga-SDYD03: ^68Ga-SDYD03 was added to PBS buffer (pH=7.4) and incubated at 37° C. The mixture samples were taken for radio-HPLC analysis after 0.5 hours, 1 hour, and 2 hours of incubation. The stability of ^68Ga-SDYD03 PBS in PBS buffer: the radiochemical purities of ^68Ga-SDYD03 after incubation in PBS for 0.5 hours, 1 hour, and 2 hours were 96%, 96% and 95%, respectively (FIG. 27).
2. ^177Lu-SDYD03: ^177Lu-SDYD03 was added to PBS buffer (pH=7.4) and incubated at 37° C. The mixture samples were taken for radio-HPLC analysis after 24 hours, 48 hours, and 120 hours of incubation. The stability of ^177Lu-SDYD03 in PBS buffer: the radiochemical purities of ^177Lu-SDYD03 after incubation in PBS for 24 hours, 48 hours, and 120 hours are 99%, 96% and 94%, respectively (FIG. 28). […]

[2] = Small animal PET imaging and biodistribution study; format: in vivo, NSG mice; settings: mouse, in vivo, iv, 7.4 MBq, absolute uptake value in the tumor
Method: (§1) Eleven NSG mice bearing subcutaneous xenograft tumors (U87 MG cells), with tumor sizes approximately 150 mm^3, were used. The mice were intravenously injected via the tail vein with approximately 7.4 MBq of ^68Ga-labeled SDYD01, SDYD02, SDYD03. SDYD04, SDYD05, SDYD06, SDYD07, SDYD08 or SDYD07-1 compounds, or with ^[…]-labeled FAPI-04 or FAP2286 compounds as tracers. Micro PET/CT imaging was performed at 30 min, 60 min, and 120 min post-injection. Static images were acquired in 3D mode for 20 minutes. Reconstruction was performed using the OSEM3D/MAP method to obtain attenuation-corrected PET/CT fusion images.
(§2) NSG mice bearing subcutaneous xenograft tumors (U87 MG cells) were divided into 3 groups, with 11 mice in each group. They were intravenously injected via the tail vein with ^68Ga-labeled SDYD01, SDYD02, SDYD03. SDYD04, SDYD05, SDYD06. SDYD07, SDYD08, or SDYD07-1 compounds, or with ^68Ga-labeled FAPI-04 or FAP2286 compounds as tracers. Tumor-bearing mice injected with ^68Ga-labeled compounds SDYD01, SDYD02, SDYD03, SDYD04, SDYD05, SDYD06, FAPI-04, as well as 68Ga-labeled compounds FAPI-04 and FAP2286, were euthanized at 30 min. 60 min, and 120 min, respectively, for each group. Tumor-bearing mice injected with ^68Ga-labeled compounds SDYD07, SDYD08, and SDYD07-1 were euthanized at 30 min, 60 min, and 90 min, respectively, for each group. Blood, tumors, and other major organs and tissues were collected, weighed, and measured for radioactivity. After radioactive decay correction, the standardized uptake value (SUV) and percentage injected dose per gram of tissue (% ID/g) were calculated. In these figures, (a) represents the PET/CT imaging results, (b) represents the biodistribution results, and (c) represents the relative ratios of radioactive uptake in tumor versus normal tissues.

[3] = tested on: subcutaneous xenograft tumors (U87 MG cells); assay: Small animal PET imaging and biodistribution study; format: in vivo, NSG mice; settings: mouse, in vivo
Method: as §1, §2

CCCCCC(=O)N[C@@H]1CSCc2cc(CSCCNC(=O)COCCOCCNC(=O)COCCOCCNC(=O)CSC3CC(=O)N(CCC(=O)N[C@H](CCCCNC(=O)CN4CCN(CC(=O)O)CCN(CC(=O)O)CCN(CC(=O)O)CC4)C(=O)NCc4ccc(C(=O)NCCC[C@@H]5C(=O)N[C@@H](CCCNC(=N)N)C(=O)N[C@@H](Cc6ccc7ccccc7c6)C(=O)NCC(=O)N[C@H](Cc6ccc(O)cc6)C(=O)N5C)cc4)C3=O)cc(c2)CSC[C@@H](C(=O)O)NC(=O)[C@H](Cc2ccccc2)NC(=O)[C@H](CCC(N)=O)NC(=O)C([C@@H](C)O)NC(=O)[C@@H]2CCCN2C(=O)[C@@H]2CCCN2C1=O (single isomer, unassigned) [^177Lu-SDYD06, metal not drawn]
stability in PBS buffer (in words) [1]: quite stable in PBS buffer

CCCCCC(=O)N[C@@H]1CSCc2cc(CSCCNC(=O)[C@@H](CCCCNC(=O)CN3CCN(CC(=O)O)CCN(CC(=O)O)CCN(CC(=O)O)CC3)NC(=O)COCCOCCNC(=O)COCCOCCNC(=O)CCN3C(=O)CC(SCCNC(=O)CCC(=O)N[C@@H](CCCNC(=N)N)C(=O)N[C@@H](CCCNC(=N)N)C(=O)N[C@@H](Cc4ccc5ccccc5c4)C(=O)N[C@@H]4CSSC[C@@H](C(=O)N[C@@H](CCCNC(=N)N)C(N)=O)NC(=O)[C@H](CCCNC(N)=O)NC(=O)[C@H](CCCNC(=N)N)NC(=O)[C@H](Cc5ccc(O)cc5)NC(=O)[C@@H]5CCCN5C(=O)[C@H](CCCCN)NC(=O)[C@H](CCCCN)NC(=O)[C@H](CCCNC(N)=O)NC(=O)[C@H](Cc5ccc(O)cc5)NC4=O)C3=O)cc(c2)CSC[C@@H](C(=O)O)NC(=O)[C@H](Cc2ccccc2)NC(=O)[C@H](CCC(N)=O)NC(=O)C([C@@H](C)O)NC(=O)[C@@H]2CCCN2C(=O)[C@@H]2CCCN2C1=O (single isomer, unassigned) [^177Lu-SDYD02, metal not drawn]
stability in PBS buffer (in words) [1]: quite stable in PBS buffer

CCCCCC(=O)N[C@H]1CSCc2cc(CSCCNC(=O)[C@H](CCCCNC(=O)CCN3C(=O)CC(SCC(=O)NCCOCCOCCOCCOCCC(=O)NCCCC[C@@H]4NC(=O)[C@@H](Cc5ccc(O)cc5)NC(=O)[C@H](CC(=O)O)NC(=O)CNC(=O)[C@H](CCCNC(=N)N)NC4=O)C3=O)NC(=O)CCC(C(=O)O)N3CCN(CC(=O)O)CCN(CC(=O)O)CCN(CC(=O)O)CC3)cc(c2)CSC[C@@H](C(=O)O)NC(=O)[C@H](Cc2ccccc2)NC(=O)[C@H](CCC(N)=O)NC(=O)C([C@@H](C)O)NC(=O)[C@@H]2CCCN2C(=O)[C@@H]2CCCN2C1=O (single isomer, unassigned) [^177Lu-SDYD08, metal not drawn]
stability in PBS buffer (in words) [1]: quite stable in PBS buffer

N#C[C@@H]1CC(F)(F)CN1C(=O)CNC(=O)c1ccnc2ccc(OCCCN3CCN(C(=O)CCOCCOCCNC(=O)CCN4C(=O)CC(SC[C@H](NC(=O)CN5CCN(CC(=O)O)CCN(CC(=O)O)CCN(CC(=O)O)CC5)C(=O)NCCCC[C@@H]5NC(=O)[C@@H](Cc6ccc(O)cc6)NC(=O)[C@H](CC(=O)O)NC(=O)CNC(=O)[C@H](CCCNC(=N)N)NC5=O)C4=O)CC3)cc12 (stereo partly drawn) [^68Ga-SDYD07-1, metal not drawn]
tissue uptake at 0.5 h [2]: ~3 %ID/g
tissue uptake at 1 h [2]: ~3 %ID/g
radioactive uptake in non-target organs (in words) [3]: relatively high non-specific uptake in both the kidneys and liver
tumor uptake after 60 minutes (in words) [3]: decreased significantly after 60 minutes

CC(C)CC(CC(C)C)NC(=O)[C@H](Cc1cnc[nH]1)NC(=O)CNC(=O)C(NC(=O)[C@H](C)NC(=O)[C@H](Cc1c[nH]c2ccccc12)NC(=O)[C@H](CCC(N)=O)NC(=O)[C@@H](Cc1ccccc1)NC(=O)COCC(=O)Nc1ccc(CNC(=O)COCCOCCNC(=O)COCCOCCNC(=O)[C@H](CCCCNC(=O)CN2CCN(CC(=O)O)CCN(CC(=O)O)CCN(CC(=O)O)CC2)NC(=O)CCC(=O)N2CCN(CCCOc3ccc4nccc(C(=O)NCC(=O)N5CC(F)(F)C[C@H]5C#N)c4c3)CC2)cc1)C(C)C (single isomer, unassigned) [^177Lu-SDYD03, metal not drawn]
stability in PBS buffer (in words) ([1]; PBS buffer pH=7.4, 37° C.): quite stable in PBS buffer

CN1C(=O)[C@@H](Cc2ccc(O)cc2)NC(=O)CNC(=O)[C@H](Cc2ccc3ccccc3c2)NC(=O)[C@H](CCCNC(=N)N)NC(=O)[C@H]1CCCNC(=O)c1ccc(CNC(=O)[C@H](CCCCNC(=O)CN2CCN(CC(=O)O)CCN(CC(=O)O)CCN(CC(=O)O)CC2)NC(=O)CCC(=O)NCCOCCOCC(=O)NCCOCCOCC(=O)N2CCN(CCCOc3ccc4nccc(C(=O)NCC(=O)N5CC(F)(F)C[C@H]5C#N)c4c3)CC2)cc1 [^177Lu-SDYD05, metal not drawn]
stability in PBS buffer (in words) [1]: quite stable in PBS buffer
